Here are results for 85 substances from patent publication US20260000597A1 (priority 2018, published 2026).

Chain of AchR (P02708 21-457): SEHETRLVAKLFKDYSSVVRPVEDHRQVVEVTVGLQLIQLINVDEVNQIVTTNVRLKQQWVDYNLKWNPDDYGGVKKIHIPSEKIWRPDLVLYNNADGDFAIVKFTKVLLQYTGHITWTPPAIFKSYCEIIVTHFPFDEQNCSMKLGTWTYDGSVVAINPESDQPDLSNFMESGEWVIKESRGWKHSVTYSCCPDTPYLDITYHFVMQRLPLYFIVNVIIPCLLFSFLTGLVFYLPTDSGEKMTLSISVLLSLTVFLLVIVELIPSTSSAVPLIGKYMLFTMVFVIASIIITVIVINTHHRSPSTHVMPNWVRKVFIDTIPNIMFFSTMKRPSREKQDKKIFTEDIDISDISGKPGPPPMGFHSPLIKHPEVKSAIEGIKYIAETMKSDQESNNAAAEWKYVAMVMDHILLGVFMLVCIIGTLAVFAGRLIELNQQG

The first assay concerns the target AchR (Homo sapiens, UniProt P02708). As to the kind of experiment: ELISA of screened peptide phages on AchR versus streptavidin (OD450). In kind it is binding. The conditions noted are these: ELISA of selected 11-mer (L2) peptide phages on AchR, absorbance at 450 nm; Spep-2 positive control. The gist of the method: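 Reported as the ratio of AchR to streptavidin OD450, with TMB read-out after HRP anti-M13 detection. Wells coated with 5 μg/ml target overnight at 4 °C and BSA-blocked, then incubated 1 h at 30 °C with helper-rescued phage from individual plaques.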
(In an ELISA, binding on a coated surface is turned into a signal by an enzyme label.)
“L2-146 (LIGKFKKPFYR; AchR binding peptide) [Peptide L2-146]” displayed an OD of 0.605. Same read-out and setting: next, “L2-84 (PWHKGKRDFDR; AchR binding peptide) [Peptide L2-84]”: 0.574; “L2-113 (QNDKDRKLSHR; AchR binding peptide) [Peptide L2-113]”: 0.64; “L2-137 (CACKQRRATSR; AchR binding peptide) [Peptide L2-137]”: 0.452.

In turn, “L2-13 (GGLKSKRLTTR; AchR binding peptide) [Peptide L2-13]” showed an OD of 0.855. The same measure, in the same setting: the value for “L2-55 (PACRSKRDWQK; AchR binding peptide) [Peptide L2-55]” was 0.524; that for “L2-102 (YTSRCKKQPRK; AchR binding peptide) [Peptide L2-102]” was 0.608. The same measure, in the same setting: the value for “L2-37 (TLWKVRKAYSR; AchR binding peptide) [Peptide L2-37]” was 0.66; that for “L2-166 (QQLRLRKLCGK; AchR binding peptide) [Peptide L2-166]” was 0.579. The substance “L2-1 (EDYKYRRQNYK; AchR binding peptide) [Peptide L2-1]” came in with an OD of 0.705. In turn, “L2-107 (VKHKERKCQRR; AchR binding peptide) [Peptide L2-107]” displayed an OD of 0.681.

Consider “L2-118 (FLRRLKKVHWK; AchR binding peptide) [Peptide L2-118]”, for which the OD was 0.65. In turn, “L2-101 (NGVRERKWQSK; AchR binding peptide) [Peptide L2-101]” showed an OD of 0.592. Same read-out and setting: next, “L2-25 (RLERPRRELTK; AchR binding peptide) [Peptide L2-25]”: 0.842; “L2-153 (GHQRGKREGSR; AchR binding peptide) [Peptide L2-153]”: 0.688; “L2-89 (PPFKFRKPLGR; AchR binding peptide) [Peptide L2-89]”: 0.749. “L2-26 (APWRLKRAPQR; AchR binding peptide) [Peptide L2-26]”: the OD is 0.809. On the same count and under the same terms, the value for “L2-133 (DFSRDRRCLSK; AchR binding peptide) [Peptide L2-133]” was 0.526.

The substance “L2-106 (QRWKWRKSLAR; AchR binding peptide) [Peptide L2-106]” came in with an OD of 0.926. The same measure, in the same setting: the value for “L2-82 (PDTRWKRVLFK; AchR binding peptide) [Peptide L2-82]” was 0.693; that for “L2-2 (GIWKFRRNQCK; AchR binding peptide) [Peptide L2-2]” was 0.749. On the same count and under the same terms, next, “L2-185 (FITRFRKMGEK; AchR binding peptide) [Peptide L2-185]”: 0.742. Still for that read-out and setting: the value for “L2-15 (HTTRGKRCDPR; AchR binding peptide) [Peptide L2-15]” was 0.705; that for “L2-11 (GIPKYRRGCSR; AchR binding peptide) [Peptide L2-11]” was 0.791. As for “L2-173 (SWAKARKLVHR; AchR binding peptide) [Peptide L2-173]”, the OD is reported as 0.705.

The same assay, now with this note: ELISA of selected 14-mer (L3) peptide phages on AchR, absorbance at 450 nm; Spep-2 positive control.
Turning to “L3-9 (NCNRFRRTIVRHCH; AchR binding peptide) [Peptide L3-9]”, the OD is listed as 0.725.

In the case of “L3-76 (QMGKFKKISLKNTF; AchR binding peptide) [Peptide L3-76]”, the OD was 0.701. “L3-134 (YWFRIKRAHAKGCP; AchR binding peptide) [Peptide L3-134]” came in with an OD of 0.653. Same read-out and setting: next, “L3-126 (YVDRWRRMQYKLSI; AchR binding peptide) [Peptide L3-126]”: 0.542; “L3-128 (IVNRAKRSQIRFDV; AchR binding peptide) [Peptide L3-128]”: 0.523; “L3-193 (AAYRARKIVEKSGW; AchR binding peptide) [Peptide L3-193]”: 0.755. In the case of “L3-21 (NPMKLRKAETKHNV; AchR binding peptide) [Peptide L3-21]”, the OD turned out to be 0.843. Turning to “L3-35 (LQCKYRRGSDKQPQ; AchR binding peptide) [Peptide L3-35]”, the OD was 0.747. For the substance “L3-160 (LTSRCKKTFQKNSE; AchR binding peptide) [Peptide L3-160]”, the OD was 0.792. The same measure, in the same setting: the value for “L3-155 (AWTRFRRFQCKGMS; AchR binding peptide) [Peptide L3-155]” was 0.794; that for “L3-89 (EWCKNKRWHSREYP; AchR binding peptide) [Peptide L3-89]” was 0.624. Same read-out and setting: next, “L3-102 (IMVKIRRCPARPLC; AchR binding peptide) [Peptide L3-102]”: 0.581; “L3-189 (ELVKHRRLDFRDPM; AchR binding peptide) [Peptide L3-189]”: 0.786; “L3-67 (VTWKFRKAEKRWGY; AchR binding peptide) [Peptide L3-67]”: 0.786. “L3-48 (PHCRQKKFWIRCGT; AchR binding peptide) [Peptide L3-48]” had an OD of 0.622. In turn, “L3-166 (EYVKAKRTPWKYVV; AchR binding peptide) [Peptide L3-166]” had an OD of 0.629. In turn, “L3-11 (FMQKCKKWWDRAVF; AchR binding peptide) [Peptide L3-11]” returned an OD of 0.8. Same read-out and setting: the value for “L3-52 (GTFKWRKSGARQYL; AchR binding peptide) [Peptide L3-52]” was 0.757; that for “L3-44 (PPFRLRKPLWRPQR; AchR binding peptide) [Peptide L3-44]” was 0.719. “L3-33 (LRQRSKRVLEKLRP; AchR binding peptide) [Peptide L3-33]” registered an OD of 0.751.

In the case of “L3-101 (QPWRQKKFWCRCWG; AchR binding peptide) [Peptide L3-101]”, the OD was found to be 0.758. For “L3-172 (VTGKGRRVTFRCMN; AchR binding peptide) [Peptide L3-172]”, the OD amounted to 0.634.

With “L3-29 (CASKPRRTYLRAAN; AchR binding peptide) [Peptide L3-29]”, the OD was found to be 0.789. Substance “L3-133 (VDSREKKWRQKCQC; AchR binding peptide) [Peptide L3-133]” displayed an OD of 0.566. In turn, “L3-83 (SYLKCKRSDYKEVP; AchR binding peptide) [Peptide L3-83]” registered an OD of 0.768.

Take “L3-125 (MQEKCRRCVFKGNI; AchR binding peptide) [Peptide L3-125]”: the OD turned out to be 0.629. Turning to “L3-70 (DHERERRLWSRFPF; AchR binding peptide) [Peptide L3-70]”, the OD is listed as 0.781.

Turning to “L3-78 (FITKSRRQQFRNQG; AchR binding peptide) [Peptide L3-78]”, the OD stood at 0.712. In turn, “L3-195 (IEDKSKRFNCKECG; AchR binding peptide) [Peptide L3-195]” registered an OD of 0.7. Still for that read-out and setting: next, “L3-191 (GINRGRKVSPKDEQ; AchR binding peptide) [Peptide L3-191]”: 0.739; “L3-7 (EGDKFRRHDIKYNF; AchR binding peptide) [Peptide L3-7]”: 0.803; “L3-162 (ANWRTRRDLAKEHV; AchR binding peptide) [Peptide L3-162]”: 0.781. As for “L3-81 (PTWRHRRYCAKDIG; AchR binding peptide) [Peptide L3-81]”, the OD was 0.775. Same read-out and setting: next, “L3-154 (ENIKSRKYFVKLTW; AchR binding peptide) [Peptide L3-154]”: 0.766; “L3-146 (AVWRNRKDNVKASE; AchR binding peptide) [Peptide L3-146]”: 0.512. Turning to “L3-19 (YMKKKRKSLLRTSL; AchR binding peptide) [Peptide L3-19]”, the OD is recorded as 0.796.

Still in this assay, the particulars now being: phage ELISA, absorbance at 450 nm, 5 μg/ml AchR; 4th and 5th round biopanning phages.
In the case of RWKRSEQR [Peptide L1-32], the OD turned out to be 0.607.

Substance RLKRGQFK [Peptide L1-85] registered an OD of 0.57. On the same count and under the same terms, next, KMRKHDVR [Peptide L1-74]: 0.649; KLKRRSRR [Peptide L1-16]: 0.62; KMRRAQGR [Peptide L1-34]: 0.634.

With KFKKHGVK [Peptide L1-21], the OD worked out at 0.65. Same read-out and setting: the value for KHKKQNVR [Peptide L1-18] was 0.627. In turn, KMRRWWLK [Peptide L1-190] displayed an OD of 0.644. Still for that read-out and setting: next, RHKRWEVR [Peptide L1-195]: 0.642. Same read-out and setting: next, RAKKIMFR [Peptide L1-177]: 0.484.

KARKNSIR [Peptide L1-170] registered an OD of 0.642. KFRKGPYR [Peptide L1-135] returned an OD of 0.479.

Take RLRRWCVK [Peptide L1-30]: the OD came out at 0.605. Turning to KDKKMPQR [Peptide L1-185], the OD turned out to be 0.55. Still for that read-out and setting: the value for RQKKDFLK [Peptide L1-107] was 0.534; that for KQKRQWAR [Peptide L1-191] was 0.649; that for KTKRGSLK [Peptide L1-101] was 0.599.

The substance KMRKGWDK [Peptide L1-138] came in with an OD of 0.373. The same measure, in the same setting: the value for RGRKKCGK [Peptide L1-42] was 0.695; that for KPRKIQGR [Peptide L1-137] was 0.458; that for RQRRMTPR [Peptide L1-156] was 0.589. Still for that read-out and setting: the value for KQRKPHGR [Peptide L1-67] was 0.593. For KIKKYYWK [Peptide L1-129], the OD worked out at 0.421.

As to RVRRSWIR [Peptide L1-72], the OD is 0.616.
